Ki data for 14 molecules are collected here from patent US9937235B2, “Lipidated peptides as anti-obesity agents” (USTAV ORGANICKE CHEMIE A BIOCHEMIE AKADEMIE VED CR, V.V.I, priority 2012, dated 2018).

Where no end group is shown, it is not given here. [ ]: non-standard residue; d: D form. The star is where a group is joined. 1Nal = N[C@@H](Cc1cccc2ccccc12)C(=O)O; Palmitoyl = CCCCCCCCCCCCCCCC(=O)*; Myristoyl = CCCCCCCCCCCCCC(=O)*; Lauroyl = CCCCCCCCCCCC(=O)*; NMeA = CN[C@@H](C)C(=O)O; Nle = CCCC[C@H](N)C(=O)O

Assay [1] concerns the target T1, human PrRP receptor, GPR10, transfected in CHO cells (human, UniProt P49683 1-370).
T1 construct: whole, on cells; also called human GPR10 receptor; the human receptor GPR10 in CHO cells
T1 sequence (looked up): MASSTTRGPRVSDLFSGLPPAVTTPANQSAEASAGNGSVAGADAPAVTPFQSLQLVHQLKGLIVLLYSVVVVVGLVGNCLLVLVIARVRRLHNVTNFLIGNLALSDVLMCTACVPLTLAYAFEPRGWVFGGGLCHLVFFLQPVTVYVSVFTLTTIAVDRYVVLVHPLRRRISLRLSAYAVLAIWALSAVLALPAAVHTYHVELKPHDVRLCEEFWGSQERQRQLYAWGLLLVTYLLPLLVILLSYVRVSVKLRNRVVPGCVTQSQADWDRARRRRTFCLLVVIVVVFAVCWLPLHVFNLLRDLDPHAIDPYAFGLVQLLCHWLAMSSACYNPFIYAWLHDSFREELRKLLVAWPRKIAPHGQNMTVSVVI
In words: competition with 125I-human PrRP31 on CHO cells with transfected human GPR10. As for the experimental part: CHO cells with transfected human PrRP receptor, GPR10 (Perkin Elmer, USA) were grown on 24-well plates coated with polyethyleneimine. The cells were grown to the optimal density of 40-80 thousand cells per well.
(§1) Plates were incubated for 60 minutes at room temperature. After incubation, the cells were solubilized in 0.1 mol/l solution of NaOH and the radioactivity bound to the cells was counted using a γ-counter. The experiments were performed in duplicate and repeated at least three times.

The target of assay [2] is T2, rat PrRP receptor in RC-4B/C cells (rat, UniProt Q64121 1-370).
T2 construct: whole, on cells; also called the rat receptor; GPR10
T2 sequence (looked up): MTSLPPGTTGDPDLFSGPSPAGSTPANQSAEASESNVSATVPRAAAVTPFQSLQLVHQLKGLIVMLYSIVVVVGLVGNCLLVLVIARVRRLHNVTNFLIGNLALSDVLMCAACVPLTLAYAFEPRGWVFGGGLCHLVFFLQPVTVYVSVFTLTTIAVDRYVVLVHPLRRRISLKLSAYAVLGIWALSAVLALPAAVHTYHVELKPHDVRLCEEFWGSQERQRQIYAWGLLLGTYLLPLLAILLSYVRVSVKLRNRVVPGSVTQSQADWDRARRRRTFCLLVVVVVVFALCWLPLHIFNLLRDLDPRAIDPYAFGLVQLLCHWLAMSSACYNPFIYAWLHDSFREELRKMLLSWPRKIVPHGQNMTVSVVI
In words: competition with 125I-rat PrRP31 on RC-4B/C cells. On the procedure:
The rat pituitary cell line RC-4B/C (ATCC, Manassas, USA) was grown on 24-well plates which had their bottom coated with polyethyleneimine. The cells were grown to the optimal density of 300-450 thousand per well.
as §1
For evaluation of competitive binding experiments, the program Graph Pad Prism Software (San Diego, Calif., USA) was used. A method of nonlinear regression assuming one-site binding was used.

B1: analog no. 48 (peptide)
peptide: QHSMETRTPDINPAWYTGRGIRPVGRF-NH2
notes: shortened PrRP31 analog
Regarding B1, the inhibitory constant (Ki) (commonly the dissociation constant of the complex between target and ligand, obtained from inhibition or displacement) was determined as 5.92 nM in assay [1] and 2.61 nM in assay [2].

B2: analog no. 47 (peptide)
peptide: Myristoyl-[Nle]ETRTPDINPAWYTGRGIRPVGRF-NH2
SMILES: CCCCCCCCCCCCCC(=O)N[C@@H](CCCC)C(=O)N[C@@H](CCC(=O)O)C(=O)N[C@H](C(=O)N[C@@H](CCCNC(=N)N)C(=O)N[C@H](C(=O)N1CCC[C@H]1C(=O)N[C@@H](CC(=O)O)C(=O)N[C@H](C(=O)N[C@@H](CC(N)=O)C(=O)N1CCC[C@H]1C(=O)N[C@@H](C)C(=O)N[C@@H](Cc1c[nH]c2ccccc12)C(=O)N[C@@H](Cc1ccc(O)cc1)C(=O)N[C@H](C(=O)NCC(=O)N[C@@H](CCCNC(=N)N)C(=O)NCC(=O)N[C@H](C(=O)N[C@@H](CCCNC(=N)N)C(=O)N1CCC[C@H]1C(=O)N[C@H](C(=O)NCC(=O)N[C@@H](CCCNC(=N)N)C(=O)N[C@@H](Cc1ccccc1)C(N)=O)C(C)C)[C@@H](C)CC)[C@@H](C)O)[C@@H](C)CC)[C@@H](C)O)[C@@H](C)O
notes: lipidated shortened PrRP31 analog
Turning to B2, the values for the Ki in assay [1] and in assay [2] were 5.48 nM and 0.45 nM, respectively.

B3: analog no. 14 (peptide)
peptide: SRAHQHS[Nle]ETRTPDINPAWYTGRGIRPVGRF-NH2
As for B3, the Ki in assay [1] stood at 1.92 nM; in assay [2], 1.28 nM.

B4: analog no. 22 (peptide)
peptide: Myristoyl-SRAHQHS[Nle]ETRTPDINPAWYTGRGIRPVGR[1Nal]-NH2
On to B4, for which the inhibition constant (Ki) was 1.33 nM in assay [1] and 3.96 nM in assay [2].

B5: analog no. 21 (peptide)
peptide: SRAHQHS[Nle]ETRTPDINPAWYTGRGIRPVGR[1Nal]-NH2
B5: the results for the Ki in assay [1] and in assay [2] were 34.5 nM and 102 nM, respectively.

B6: analog no. 23 (peptide)
peptide: Palmitoyl-SRAHQHS[Nle]ETRTPDINPAWYTGRGIRPVGR[1Nal]-NH2
Turning to B6, the results for the Ki in assay [1] and in assay [2] were 4.27 nM and 2.17 nM, respectively.

B7: analog no. 42 (peptide)
peptide: TPDINPAWYTGRGARPFGRF-NH2
B7: the Ki in assay [1] was 583 nM; in assay [2], 655 nM.

B8: analog no. 43 (peptide)
peptide: Myristoyl-TPDINPAWYTGRGARPFGRF-NH2
SMILES: CCCCCCCCCCCCCC(=O)N[C@H](C(=O)N1CCC[C@H]1C(=O)N[C@@H](CC(=O)O)C(=O)N[C@H](C(=O)N[C@@H](CC(N)=O)C(=O)N1CCC[C@H]1C(=O)N[C@@H](C)C(=O)N[C@@H](Cc1c[nH]c2ccccc12)C(=O)N[C@@H](Cc1ccc(O)cc1)C(=O)N[C@H](C(=O)NCC(=O)N[C@@H](CCCNC(=N)N)C(=O)NCC(=O)N[C@@H](C)C(=O)N[C@@H](CCCNC(=N)N)C(=O)N1CCC[C@H]1C(=O)N[C@@H](Cc1ccccc1)C(=O)NCC(=O)N[C@@H](CCCNC(=N)N)C(=O)N[C@@H](Cc1ccccc1)C(N)=O)[C@@H](C)O)[C@@H](C)CC)[C@@H](C)O
Take B8: the figures for the Ki in assay [1] and in assay [2] were 8.47 nM and 7.21 nM, respectively.

B9: analog no. 40 (peptide)
peptide: TPDINPAWY[NMeA]SRGIRPVGRF-NH2
modifications: N-terminus assumed
SMILES: CC[C@H](C)[C@H](NC(=O)CNC(=O)[C@H](CCCNC(=N)N)NC(=O)[C@H](CO)NC(=O)[C@H](C)N(C)C(=O)[C@H](Cc1ccc(O)cc1)NC(=O)[C@H](Cc1c[nH]c2ccccc12)NC(=O)[C@H](C)NC(=O)[C@@H]1CCCN1C(=O)[C@H](CC(N)=O)NC(=O)[C@@H](NC(=O)[C@H](CC(=O)O)NC(=O)[C@@H]1CCCN1C(=O)[C@@H](N)[C@@H](C)O)[C@@H](C)CC)C(=O)N[C@@H](CCCNC(=N)N)C(=O)N1CCC[C@H]1C(=O)N[C@H](C(=O)NCC(=O)N[C@@H](CCCNC(=N)N)C(=O)N[C@@H](Cc1ccccc1)C(N)=O)C(C)C
As to B9, the results for the Ki in assay [1] and in assay [2] were 8.72 nM and 49.4 nM, respectively.

B10: analog no. 44 (peptide)
peptide: TPDINPAWYASRPFRPVGRF-NH2
Regarding B10, the Ki in assay [1] came to 1.73 nM; in assay [2], 2.14 nM.

B11: analog no. 45 (peptide)
peptide: Myristoyl-TPDINPAWYASRPFRPVGRF-NH2
SMILES: CCCCCCCCCCCCCC(=O)N[C@H](C(=O)N1CCC[C@H]1C(=O)N[C@@H](CC(=O)O)C(=O)N[C@H](C(=O)N[C@@H](CC(N)=O)C(=O)N1CCC[C@H]1C(=O)N[C@@H](C)C(=O)N[C@@H](Cc1c[nH]c2ccccc12)C(=O)N[C@@H](Cc1ccc(O)cc1)C(=O)N[C@@H](C)C(=O)N[C@@H](CO)C(=O)N[C@@H](CCCNC(=N)N)C(=O)N1CCC[C@H]1C(=O)N[C@@H](Cc1ccccc1)C(=O)N[C@@H](CCCNC(=N)N)C(=O)N1CCC[C@H]1C(=O)N[C@H](C(=O)NCC(=O)N[C@@H](CCCNC(=N)N)C(=O)N[C@@H](Cc1ccccc1)C(N)=O)C(C)C)[C@@H](C)CC)[C@@H](C)O
For the molecule B11, the results for the Ki in assay [1] and in assay [2] were 0.58 nM and 0.84 nM, respectively.

B12: analog no. 46 (peptide)
peptide: [Nle]ETRTPDINPAWYTGRGIRPVGRF-NH2
modifications: N-terminus assumed
SMILES: CCCC[C@H](N)C(=O)N[C@@H](CCC(=O)O)C(=O)N[C@H](C(=O)N[C@@H](CCCNC(=N)N)C(=O)N[C@H](C(=O)N1CCC[C@H]1C(=O)N[C@@H](CC(=O)O)C(=O)N[C@H](C(=O)N[C@@H](CC(N)=O)C(=O)N1CCC[C@H]1C(=O)N[C@@H](C)C(=O)N[C@@H](Cc1c[nH]c2ccccc12)C(=O)N[C@@H](Cc1ccc(O)cc1)C(=O)N[C@H](C(=O)NCC(=O)N[C@@H](CCCNC(=N)N)C(=O)NCC(=O)N[C@H](C(=O)N[C@@H](CCCNC(=N)N)C(=O)N1CCC[C@H]1C(=O)N[C@H](C(=O)NCC(=O)N[C@@H](CCCNC(=N)N)C(=O)N[C@@H](Cc1ccccc1)C(N)=O)C(C)C)[C@@H](C)CC)[C@@H](C)O)[C@@H](C)CC)[C@@H](C)O)[C@@H](C)O
notes: shortened PrRP31 analog
As to B12, the inhibitory constant (Ki) in assay [1] was 3.44 nM; in assay [2], 2.94 nM.

B13: analog no. 49 (peptide)
peptide: Myristoyl-QHSMETRTPDINPAWYTGRGIRPVGRF-NH2
SMILES: CCCCCCCCCCCCCC(=O)N[C@@H](CCC(N)=O)C(=O)N[C@@H](Cc1c[nH]cn1)C(=O)N[C@@H](CO)C(=O)N[C@@H](CCSC)C(=O)N[C@@H](CCC(=O)O)C(=O)N[C@H](C(=O)N[C@@H](CCCNC(=N)N)C(=O)N[C@H](C(=O)N1CCC[C@H]1C(=O)N[C@@H](CC(=O)O)C(=O)N[C@H](C(=O)N[C@@H](CC(N)=O)C(=O)N1CCC[C@H]1C(=O)N[C@@H](C)C(=O)N[C@@H](Cc1c[nH]c2ccccc12)C(=O)N[C@@H](Cc1ccc(O)cc1)C(=O)N[C@H](C(=O)NCC(=O)N[C@@H](CCCNC(=N)N)C(=O)NCC(=O)N[C@H](C(=O)N[C@@H](CCCNC(=N)N)C(=O)N1CCC[C@H]1C(=O)N[C@H](C(=O)NCC(=O)N[C@@H](CCCNC(=N)N)C(=O)N[C@@H](Cc1ccccc1)C(N)=O)C(C)C)[C@@H](C)CC)[C@@H](C)O)[C@@H](C)CC)[C@@H](C)O)[C@@H](C)O
notes: as for B2
As to B13, the inhibition constant Ki came to 6.93 nM in assay [1] and 0.37 nM in assay [2].

B14: analog no. 54 (peptide)
peptide: Lauroyl-TPDINPAWYASRGIRPVGRF-NH2
SMILES: CCCCCCCCCCCC(=O)N[C@H](C(=O)N1CCC[C@H]1C(=O)N[C@@H](CC(=O)O)C(=O)N[C@H](C(=O)N[C@@H](CC(N)=O)C(=O)N1CCC[C@H]1C(=O)N[C@@H](C)C(=O)N[C@@H](Cc1c[nH]c2ccccc12)C(=O)N[C@@H](Cc1ccc(O)cc1)C(=O)N[C@@H](C)C(=O)N[C@@H](CO)C(=O)N[C@@H](CCCNC(=N)N)C(=O)NCC(=O)N[C@H](C(=O)N[C@@H](CCCNC(=N)N)C(=O)N1CCC[C@H]1C(=O)N[C@H](C(=O)NCC(=O)N[C@@H](CCCNC(=N)N)C(=O)N[C@@H](Cc1ccccc1)C(N)=O)C(C)C)[C@@H](C)CC)[C@@H](C)CC)[C@@H](C)O
B14 returned a Ki in assay [1] of 2.41 nM.
